According to paper PMC7641746 (Nucleic Acids Research, 2020):

What was measured:
[1] = molecular target: VDR;RXRα ΔNTD;MED1 (50-660) (Homo sapiens;Homo sapiens;Homo sapiens, UniProt P11473;P19793;Q15648 1-427;130-462;50-660, ||); test: SEC-MALLS
VDR;RXRα ΔNTD = VDR;RXRα ΔNTD (Homo sapiens;Homo sapiens, UniProt P11473;P19793 1-427;130-462, |); test: ITC
MED1 (50–660) = MED1 (50–660) (human, UniProt Q15648 50-660); test: HDX-MS
MED1 (50–660), sequence (Q15648 50-660): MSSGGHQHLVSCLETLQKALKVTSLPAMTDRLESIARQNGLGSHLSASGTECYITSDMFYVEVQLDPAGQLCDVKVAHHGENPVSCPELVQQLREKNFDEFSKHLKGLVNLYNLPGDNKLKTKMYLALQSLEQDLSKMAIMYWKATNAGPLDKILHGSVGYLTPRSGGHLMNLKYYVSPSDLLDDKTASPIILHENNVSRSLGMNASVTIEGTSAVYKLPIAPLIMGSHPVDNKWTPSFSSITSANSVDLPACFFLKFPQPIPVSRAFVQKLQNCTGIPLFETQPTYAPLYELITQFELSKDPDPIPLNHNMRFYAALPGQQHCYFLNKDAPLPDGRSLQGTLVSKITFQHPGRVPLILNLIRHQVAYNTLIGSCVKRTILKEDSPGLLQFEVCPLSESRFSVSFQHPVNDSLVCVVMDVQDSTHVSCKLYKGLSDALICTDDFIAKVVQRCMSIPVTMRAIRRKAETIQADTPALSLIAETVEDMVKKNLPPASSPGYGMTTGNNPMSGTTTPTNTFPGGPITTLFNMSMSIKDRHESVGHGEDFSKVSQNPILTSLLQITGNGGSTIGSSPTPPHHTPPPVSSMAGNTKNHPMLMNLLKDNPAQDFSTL

VDR;RXRα ΔNTD;MED1 (50-660), sequence (Q15648 50-660, stated change not applied, one chain of several): as the sequence (Q15648 50-660) above

B1: rat Nppa (rANF1) DR3 VDRE (dsDNA)
DNA 1: AGAGGTCATGAAGGACATT
DNA 2: AATGTCCTTCATGACCTCT
- binding result [1]: binds
- binding result (VDR;RXRα ΔNTD): binds

B2: full-length HsVDR (1–427) (receptor)
chain: MEAMAASTSLPDPGDFDRNVPRICGVCGDRATGFHFNAMTCEGCKGFFRRSMKRKALFTCPFNGDCRITKDNRRHCQACRLKRCVDIGMMKEFILTDEEVQRKREMILKRKEEEALKDSLRPKLSEEQQRIIAILLDAHHKTYDPTYSDFCQFRPPVRVNDGGGSHPSRPNSRHTPSFSGDSSSSCSDHCITSSDMMDSSSFSNLDLSEEDSDDPSVTLELSQLSMLPHLADLVSYSIQKVIGFAKMIPGFRDLTSEDQIVLLKSSAIEVIMLRSNESFTMDDMSWTCGNQDYKYRVSDVTKAGHSLELIEPLIKFQVGLKKLNLHEEEHVLLMAICIVSPDRPGVQDAALIEAIQDRLSNTLQTYIRCRHPPPGSHLLYAKMIQKLADLRSLNEEHSKQYRCLSFQPECSMKLTPLVLEVFGNEIS
- binding result (MED1 (50–660)): binds

B3: HsRXRαΔNTD (130–462) (receptor)
chain: FTKHICAICGDRSSGKHYGVYSCEGCKGFFKRTVRKDLTYTCRDNKDCLIDKRQRNRCQYCRYQKCLAMGMKREAVQEERQRGKDRNENEVESTSSANEDMPVERILEAELAVEPKTETYVEANMGLNPSSPNDPVTNICQAADKQLFTLVEWAKRIPHFSELPLDDQVILLRAGWNELLIASFSHRSIAVKDGILLATGLHVHRNSAHSAGVGAIFDRVLTELVSKMRDMQMDKTELGCLRAIVLFNPDSKGLSNPAEVEALREKVYASLEAYCKHKYPEQPGRFAKLLLRLPALRSIGLKCLEHLFFFKLIGDTPIDTFLMEMLEAPHQMT
- binding result (MED1 (50–660)): binds
